Reference: patent publication US20140087995A1 (published 2014)
Numbered stars: 1 amine (or outer) side, 2 acyl side, 3 side chain; on linkers, the order of the positions; unused ones are H or OH. Bridge positions count the residues as written; N and C are the ends. Side chains are listed from the residue outwards. Ends that are not written are not given here. * marks the point of attachment. C20 diacid = O=C(O)CCCCCCCCCCCCCCCCCCC(=O)*; γGlu = O=C(O)[C@H](CCC(=O)[*:2])N[*:1]

T1: human calcitonin receptor (human, UniProt P30988 25-474)
T1 construct: whole, on cells; Assay used cell membranes of the transfected BHK cells; also called hCTR; hCT
T1 sequence (looked up): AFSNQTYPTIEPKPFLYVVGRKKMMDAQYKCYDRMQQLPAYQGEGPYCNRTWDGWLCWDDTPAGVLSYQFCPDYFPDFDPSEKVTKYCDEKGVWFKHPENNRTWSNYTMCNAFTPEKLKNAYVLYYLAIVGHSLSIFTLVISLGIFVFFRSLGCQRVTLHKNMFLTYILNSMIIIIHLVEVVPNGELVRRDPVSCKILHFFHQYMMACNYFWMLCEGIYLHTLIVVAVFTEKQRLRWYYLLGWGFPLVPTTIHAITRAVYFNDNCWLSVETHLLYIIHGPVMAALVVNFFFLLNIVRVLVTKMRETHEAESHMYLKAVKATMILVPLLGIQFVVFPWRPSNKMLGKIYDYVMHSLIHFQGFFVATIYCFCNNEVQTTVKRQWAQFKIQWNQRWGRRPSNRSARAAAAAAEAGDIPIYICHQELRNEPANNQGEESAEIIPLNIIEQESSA

T2: human amylin receptor (human, UniProt P30988 25-474; O60896 24-148, limits assumed)
T2 construct: whole, on cells; Assay used cell membranes of the Amylin 3(a)/CRE-luc BHK cells; the complex is called the human amylin receptor; also called hAmylin-R; hAmylinR
T2 sequence (looked up) 1: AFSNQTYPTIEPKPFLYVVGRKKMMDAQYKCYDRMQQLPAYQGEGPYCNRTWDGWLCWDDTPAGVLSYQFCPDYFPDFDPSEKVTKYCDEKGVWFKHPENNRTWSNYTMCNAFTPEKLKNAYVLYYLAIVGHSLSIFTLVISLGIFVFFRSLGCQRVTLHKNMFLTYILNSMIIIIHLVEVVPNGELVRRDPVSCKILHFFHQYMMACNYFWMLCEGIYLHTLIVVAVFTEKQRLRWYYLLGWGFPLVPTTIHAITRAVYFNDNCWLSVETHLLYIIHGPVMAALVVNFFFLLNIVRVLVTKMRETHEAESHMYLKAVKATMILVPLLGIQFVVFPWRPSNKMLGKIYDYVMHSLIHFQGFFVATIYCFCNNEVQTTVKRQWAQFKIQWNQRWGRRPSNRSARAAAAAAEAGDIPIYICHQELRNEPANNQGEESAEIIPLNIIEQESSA
T2 sequence (looked up) 2: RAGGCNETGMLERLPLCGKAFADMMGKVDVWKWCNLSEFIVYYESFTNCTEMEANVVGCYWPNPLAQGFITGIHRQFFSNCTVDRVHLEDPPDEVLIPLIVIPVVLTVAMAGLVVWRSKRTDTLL

T3: human amylin receptor (amylin 3(a) receptor: human calcitonin receptor with RAMP-3) (human, UniProt P30988 25-474; O60896 24-148, limits assumed)
T3 sequence (looked up) 1: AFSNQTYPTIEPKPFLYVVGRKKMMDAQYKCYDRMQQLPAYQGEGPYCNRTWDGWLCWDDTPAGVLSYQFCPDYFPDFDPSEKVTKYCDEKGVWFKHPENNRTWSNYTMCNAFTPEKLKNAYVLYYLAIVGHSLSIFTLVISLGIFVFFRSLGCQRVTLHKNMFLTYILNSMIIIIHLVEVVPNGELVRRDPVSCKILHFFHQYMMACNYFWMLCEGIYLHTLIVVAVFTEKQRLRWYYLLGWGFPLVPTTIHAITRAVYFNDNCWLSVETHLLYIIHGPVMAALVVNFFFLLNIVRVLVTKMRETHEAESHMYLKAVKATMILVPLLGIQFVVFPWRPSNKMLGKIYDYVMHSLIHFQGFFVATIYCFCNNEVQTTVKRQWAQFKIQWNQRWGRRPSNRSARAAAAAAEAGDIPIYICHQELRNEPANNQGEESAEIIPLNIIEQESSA
T3 sequence (looked up) 2: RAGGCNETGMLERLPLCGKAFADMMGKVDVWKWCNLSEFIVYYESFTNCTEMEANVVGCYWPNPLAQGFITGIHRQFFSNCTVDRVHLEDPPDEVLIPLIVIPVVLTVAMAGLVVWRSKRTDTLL

T4: human calcitonin receptor (human, UniProt P30988 25-474)
T4 sequence (looked up): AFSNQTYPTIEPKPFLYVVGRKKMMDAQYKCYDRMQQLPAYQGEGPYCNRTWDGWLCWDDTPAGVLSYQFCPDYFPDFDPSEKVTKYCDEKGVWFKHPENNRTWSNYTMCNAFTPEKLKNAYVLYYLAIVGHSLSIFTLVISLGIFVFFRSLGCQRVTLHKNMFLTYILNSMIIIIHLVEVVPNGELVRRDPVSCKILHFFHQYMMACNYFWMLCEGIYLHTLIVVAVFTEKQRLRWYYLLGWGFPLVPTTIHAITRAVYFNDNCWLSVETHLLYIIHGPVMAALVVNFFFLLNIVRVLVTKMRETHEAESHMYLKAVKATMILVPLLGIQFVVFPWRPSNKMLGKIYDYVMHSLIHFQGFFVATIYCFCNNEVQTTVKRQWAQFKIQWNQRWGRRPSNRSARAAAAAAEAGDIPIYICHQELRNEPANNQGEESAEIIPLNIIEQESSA


Tests used:
[1] = target: T1, human calcitonin receptor; test: SPA radioligand competition (125I-calcitonin), membranes of BHK cells with human calcitonin receptor
In short: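 BHK hCTR membranes 35 ng/μL + SPA beads 0.05 mg/well; buffer 50 mM Hepes pH 7.4, 1 mM CaCl2, 5 mM MgCl₂, 0.1% OA, 0.02% Tween20. 120 min, 25° C., shaking. Scintillation count; IC50 by one-site binding competition.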

[2] = target: T1, human calcitonin receptor; test: ratio IC50 hCTR / IC50 hAmylin-R of the two SPA competition assays; reference: human amylin receptor
In short: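 Competition binding by SPA with cell membranes (35 ng/μL) and SPA beads in 50 mM Hepes pH 7.4 with 1 mM CaCl2, 5 mM MgCl2, 0.1% OA and 0.02% Tween20. Incubated 120 min at 25 °C with shaking, then counted.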

[3] = target: T2, human amylin receptor; test: SPA radioligand competition (125I-rat amylin), membranes of BHK cells with human calcitonin receptor + RAMP-3
Description: The binding assay was performed using scintillation proximity assay (SPA) beads (RPNQ0001) from PerkinElmer and cell membranes from the Amylin 3(a)/CRE-luc cells (as described in Assay (II)) were used. Membranes were prepared in the following way; the cells were rinsed with PBS and incubated with Versene for approximately 5 min before harvesting. The cells were flushed with PBS and the cell-suspension was centrifuged for 5 min at 1000 rpm. Cells were homogenized (ultrathurrax) in a buffer containing 20 mM Na-HEPES and 10 mM EDTA (pH 7.4) and centrifuged at 20.000 rpm for 15 min. The resulting pellet was resuspended, homogenized and centrifuged (20.000 rpm, 15 min) in a buffer containing 20 mM Na-HEPES and 0.1 mM EDTA (pH 7.4, buffer 2). The resulting pellet was resuspended in buffer 2 and protein concentration was measured (BCA protein Assay, Pierce). The homogenate was kept cold during the whole procedure. The membranes were kept at −80° C. until use. The assay was performed in a 384 well Optiplate (PerkinElmer) in a total volume of 40 ul. Membranes were mixed with SPA beads. Final concentration of membranes 35 ng/μL final and SPA beads was 0.05 mg/well. Test-compounds were dissolved in DMSO and further diluted in assay buffer (50 mM Hepes, pH 7.4, 1 mM CaCl2, 5 mM MgCl₂, 0.1% OA and 0.02% Tween20). […] The final mixture was incubated with shaking at 400 rpm for 120 min at 25° C. prior to centrifugation (1500 rpm, 10 min). Samples were analyzed on TopCounter™ (Packard). The IC₅₀ was calculated using (one site binding competition analysis) GraphPad Prism5 as a measure of receptor affinity.

[4] = target: T3, human amylin receptor (amylin 3(a) …); test: cell-based or functional assay
[5] = target: T4, human calcitonin receptor; test: cell-based or functional assay

| IC50 [1] [nM] | Ratio hCT/hAmylin binding [2] | IC50 [3] [nM] | hAmylin-R funct. EC50 (pM) [4] [pM] | Ratio hCT/hAmylin funct. [5] [ratio] | Binder |
| --- | --- | --- | --- | --- | --- |
| 19.5 | 47.5 | 0.411 | – | – | K([γGlu-γGlu-C20 diacid])CNTATCATQRLADFLRHSSPNFGAIPSSTNVGSDTY-NH2 (disulfide 2-7; N-terminus assumed; SMILES CC[C@H](C)[C@H](NC(=O)[C@H](C)NC(=O)CNC(=O)[C@H](Cc1ccccc1)NC(=O)[C@H](CC(N)=O)NC(=O)[C@@H]1CCCN1C(=O)[C@H](CO)NC(=O)[C@H](CO)NC(=O)[C@H](Cc1c[nH]cn1)NC(=O)[C@H](CCCNC(=N)N)NC(=O)[C@H](CC(C)C)NC(=O)[C@H](Cc1ccccc1)NC(=O)[C@H](CC(=O)O)NC(=O)[C@H](C)NC(=O)[C@H](CC(C)C)NC(=O)[C@H](CCCNC(=N)N)NC(=O)[C@H](CCC(N)=O)NC(=O)[C@@H](NC(=O)[C@H](C)NC(=O)[C@@H]1CSSC[C@H](NC(=O)[C@@H](N)CCCCNC(=O)CC[C@H](NC(=O)CC[C@H](NC(=O)CCCCCCCCCCCCCCCCCCC(=O)O)C(=O)O)C(=O)O)C(=O)N[C@@H](CC(N)=O)C(=O)N[C@@H]([C@@H](C)O)C(=O)N[C@@H](C)C(=O)N[C@@H]([C@@H](C)O)C(=O)N1)[C@@H](C)O)C(=O)N1CCC[C@H]1C(=O)N[C@@H](CO)C(=O)N[C@@H](CO)C(=O)N[C@H](C(=O)N[C@@H](CC(N)=O)C(=O)N[C@H](C(=O)NCC(=O)N[C@@H](CO)C(=O)N[C@@H](CC(=O)O)C(=O)N[C@H](C(=O)N[C@@H](Cc1ccc(O)cc1)C(N)=O)[C@@H](C)O)C(C)C)[C@@H](C)O, Synthetic analogue; also called compound 2) |
| – | – | – | 773 | 8.5 | K([γGlu-γGlu-C20 diacid])CNTATCATQRLAEFLRHSSPNFGAIPSSTNVGRNTY-NH2 (disulfide 2-7; N-terminus assumed; SMILES CC[C@H](C)[C@H](NC(=O)[C@H](C)NC(=O)CNC(=O)[C@H](Cc1ccccc1)NC(=O)[C@H](CC(N)=O)NC(=O)[C@@H]1CCCN1C(=O)[C@H](CO)NC(=O)[C@H](CO)NC(=O)[C@H](Cc1c[nH]cn1)NC(=O)[C@H](CCCNC(=N)N)NC(=O)[C@H](CC(C)C)NC(=O)[C@H](Cc1ccccc1)NC(=O)[C@H](CCC(=O)O)NC(=O)[C@H](C)NC(=O)[C@H](CC(C)C)NC(=O)[C@H](CCCNC(=N)N)NC(=O)[C@H](CCC(N)=O)NC(=O)[C@@H](NC(=O)[C@H](C)NC(=O)[C@@H]1CSSC[C@H](NC(=O)[C@@H](N)CCCCNC(=O)CC[C@H](NC(=O)CC[C@H](NC(=O)CCCCCCCCCCCCCCCCCCC(=O)O)C(=O)O)C(=O)O)C(=O)N[C@@H](CC(N)=O)C(=O)N[C@@H]([C@@H](C)O)C(=O)N[C@@H](C)C(=O)N[C@@H]([C@@H](C)O)C(=O)N1)[C@@H](C)O)C(=O)N1CCC[C@H]1C(=O)N[C@@H](CO)C(=O)N[C@@H](CO)C(=O)N[C@H](C(=O)N[C@@H](CC(N)=O)C(=O)N[C@H](C(=O)NCC(=O)N[C@@H](CCCNC(=N)N)C(=O)N[C@@H](CC(N)=O)C(=O)N[C@H](C(=O)N[C@@H](Cc1ccc(O)cc1)C(N)=O)[C@@H](C)O)C(C)C)[C@@H](C)O, also called compound 88) |
